Reference: patent publication US20240092908A1 (ZHEJIANG DOER BIOLOGICS, published 2024)

Key:
[1] = molecular target: fusion protein hPD1-Fc composed of the PD-1 extracellular domain sequence and human IgG1 FC (human); assay: competitive phage ELISA on coated hPD1-Fc; competitor Bio-hPDL1-HSA
Description: After washing 3 times with PBST, 100 μl of Streptavidin-HRP diluted 1:50000 (Jackson ImmunoResearch Inc) was added to each well and incubated at 37° C. for 1 hour. After washing 3 times with PBS, TMB color development working solution (Beijing ComWin Biotech Co., Ltd.) was added and incubated at room temperature for 5 minutes to develop color, then 1M sulfuric acid was added to terminate the reaction and OD450 nm reading was recorded. […] Competitive positive clones were selected for sequencing and duplicate sequences were removed.

[2] = molecular target: T1, Monkey RhPD1-HSA fusion protein (monkey); assay: ELISA, RhPD1-HSA coated 200 ng/well, VHH 1 µg/mL, anti-his detection
T1 construct: also called monkey PD-1
Description: (§1) Monkey RhPD1-HSA fusion protein (SEQ ID No. 30) was coated on plates at 200 ng/well overnight at 4° C. and blocked with 5% skim milk at room temperature for 1 hour. Purified histidine-tagged anti-PD1 single-domain antibody was diluted to 1 μg/mL and incubated at 37° C. for 1 hour with 100 μL per well. After washing with PBST 3 times, a mouse anti-his tag antibody (R&D Systems, Inc) diluted 1:5000 was added at 100 μl/well and incubated at room temperature for 1 hour. After washing with PBST, HRP-Goat anti-mouse IgG antibody (Thermo Scientific) diluted 1:10000 was added at 100 μl/well and incubated at room temperature for 1 hour. After washing with PBST, TMB color developing solution was added for color development and OD value was measured at 450 nm.

[3] = molecular target: T2, fusion protein hPD1-HSA composed of a PD1 extracellular domain sequence and a human serum albumin sequence (human); assay: ELISA, hPD1-HSA coated 200 ng/well, VHH 1 µg/mL, anti-his detection
T2 construct: PD-1 extracellular domain fused to HSA; also called Human hPD1-HSA; human PD-1
Description: as §1, with “Human hPD1-HSA, mouse mPD1-HSA” for “Monkey RhPD1-HSA fusion protein”, “NO: 57) or HSA (purchased from Sigma) were” for “No. 30) was”, “anti-PD-1” for “anti-PD1”, “solution (Beijing ComWin Biotech Co., Ltd.)” for “solution”

[4] = molecular target: T3, HSA (purchased from Sigma) (human, UniProt P02768 25-609); assay: ELISA, HSA coated 200 ng/well, VHH 1 µg/mL, anti-his detection
T3 construct: Control coat for the HSA part of hPD1-HSA; also called human serum albumin
Description: as §1, with “Human hPD1-HSA, mouse mPD1-HSA” for “Monkey RhPD1-HSA fusion protein”, “NO: 57) or HSA (purchased from Sigma) were” for “No. 30) was”, “anti-PD-1” for “anti-PD1”, “solution (Beijing ComWin Biotech Co., Ltd.)” for “solution”

[5] = molecular target: T4, mouse mPD1-HSA fusion protein (mouse); assay: ELISA, mPD1-HSA coated 200 ng/well, anti-his detection
T4 construct: also called mouse PD-1
Description: as §1, with “Human hPD1-HSA, mouse mPD1-HSA” for “Monkey RhPD1-HSA fusion protein”, “NO: 57) or HSA (purchased from Sigma) were” for “No. 30) was”, “anti-PD-1” for “anti-PD1”, “solution (Beijing ComWin Biotech Co., Ltd.)” for “solution”

Row | Binder | binding result [1] | OD450 nm [2] | OD450 nm [3] | OD450 nm [4] | binding result [5]
1 | anti-PD1 single-domain antibody clone 1D3, displayed on recombinant phage (VHH, not shown: large carriers, Tested as phage supernatant in the screening ELISAs of Embodiment 2.2) VHH: QVQLVESGGGLVQPGGSLNLSCVASGSVFIIDVMAWYRQAPGKQRELVAQIINGGATYYADSVKGRFTISRDDTKTTLYLQMNSLKPDDTAVYYCSAEKFNPYRDSTHFWGQGTQVTVSS | binds |  |  |  | 
2 | anti-PD1 single-domain antibody clone 1A4, displayed on recombinant phage (VHH, not shown: large carriers, Tested as phage supernatant in the screening ELISAs of Embodiment 2.2) VHH: QVQLVESGGGLVQPGGSLNLSCVASGNVFIIDVMAWYRQAPGKQRELVAQIINGDAKYYVDSVKGRFTISRDNTKTTLYLQMNSLKPDDTAIYYCSAEKFNPYRDSTNFWGQGTQVTVSS | binds |  |  |  | 
3 | anti-PD1 single-domain antibody clone 1A9, displayed on recombinant phage (VHH, not shown: large carriers, Tested as phage supernatant in the screening ELISAs of Embodiment 2.2) VHH: QVQLVESGGGLVQPGGSLNLSCVASGNVFIIDVMAWYRQAPGKQRELVAQIINGGATYYADSVKGRFTISRDDTKTTLNLQMNSLKPDDTAVYYCSAEKFNPYRDSTHFWGQGTQVTVSA | binds |  |  |  | 
4 | anti-PD1 single-domain antibody clone 1H1, displayed on recombinant phage (VHH, not shown: large carriers, Tested as phage supernatant in the screening ELISAs of Embodiment 2.2) VHH: QVQLVESGGGLVQPGGSLNLSCVASGSVFIIDVMAWYRQAPGKQRELVAQIINGGASYYADSVKGRFTISRDNTKTTLFLQMNSLKPADTAVYYCNAEKFNPYRDSTNFWGQGTQVTVSS | binds |  |  |  | 
5 | anti-PD1 single-domain antibody clone 2C4, displayed on recombinant phage (VHH, not shown: large carriers, Tested as phage supernatant in the screening ELISAs of Embodiment 2.2) VHH: QVQLVESGGGLVRPGGSLRLSCAASGSVFIIDVMAWYRQAPGKQRELVAQIISGDHAYYADSVKGRFTISRDDTKTTLYLQMNSLKPDDTAVYYCSAEKFNPYRDSTYFWGQGTQVTVSS | binds |  |  |  | 
6 | anti-PD1 single-domain antibody clone 2D9, displayed on recombinant phage (VHH, not shown: large carriers, Tested as phage supernatant in the screening ELISAs of Embodiment 2.2) VHH: QVQLVESGGGLVQPGGSLRLSCAASGSVFIIDVMAWYRQAPGKQRELVAQIINGDAKYYADSVKGRFTISRDNTKTTLYLQMNSLKPDDTAVYYCSAEQFNPYRDSTYFWGQGTQVTVSS | binds |  |  |  | 
7 | anti-PD-1 single-domain antibody clone 1D3, histidine-tagged, from E. coli (VHH, Alpaca VHH expressed in E. coli Rosetta (DE3) from pET32a+, purified on a Ni column; not shown: C-terminal histidine tag) VHH: QVQLVESGGGLVQPGGSLNLSCVASGSVFIIDVMAWYRQAPGKQRELVAQIINGGATYYADSVKGRFTISRDDTKTTLYLQMNSLKPDDTAVYYCSAEKFNPYRDSTHFWGQGTQVTVSS |  | 2.1 OD450 nm | 2.1 OD450 nm | 0.029 OD450 nm | no binding (tested: 1 µg/mL)
8 | anti-PD-1 single-domain antibody clone 1A4, histidine-tagged, from E. coli (VHH, Alpaca VHH expressed in E. coli Rosetta (DE3) from pET32a+, purified on a Ni column; not shown: C-terminal histidine tag) VHH: QVQLVESGGGLVQPGGSLNLSCVASGNVFIIDVMAWYRQAPGKQRELVAQIINGDAKYYVDSVKGRFTISRDNTKTTLYLQMNSLKPDDTAIYYCSAEKFNPYRDSTNFWGQGTQVTVSS |  | 2 OD450 nm | 2.13 OD450 nm | 0.021 OD450 nm | no binding (tested: 1 µg/mL)
9 | anti-PD-1 single-domain antibody clone 1A9, histidine-tagged, from E. coli (VHH, Alpaca VHH expressed in E. coli Rosetta (DE3) from pET32a+, purified on a Ni column; not shown: C-terminal histidine tag) VHH: QVQLVESGGGLVQPGGSLNLSCVASGNVFIIDVMAWYRQAPGKQRELVAQIINGGATYYADSVKGRFTISRDDTKTTLNLQMNSLKPDDTAVYYCSAEKFNPYRDSTHFWGQGTQVTVSA |  | 2.02 OD450 nm | 2.12 OD450 nm | 0.035 OD450 nm | no binding (tested: 1 µg/mL)
10 | anti-PD-1 single-domain antibody clone 1H1, histidine-tagged, from E. coli (VHH, Alpaca VHH expressed in E. coli Rosetta (DE3) from pET32a+, purified on a Ni column; not shown: C-terminal histidine tag) VHH: QVQLVESGGGLVQPGGSLNLSCVASGSVFIIDVMAWYRQAPGKQRELVAQIINGGASYYADSVKGRFTISRDNTKTTLFLQMNSLKPADTAVYYCNAEKFNPYRDSTNFWGQGTQVTVSS |  | 2.02 OD450 nm | 2.17 OD450 nm | 0.031 OD450 nm | no binding (tested: 1 µg/mL)
11 | anti-PD-1 single-domain antibody clone 2C4, histidine-tagged, from E. coli (VHH, Alpaca VHH expressed in E. coli Rosetta (DE3) from pET32a+, purified on a Ni column; not shown: C-terminal histidine tag) VHH: QVQLVESGGGLVRPGGSLRLSCAASGSVFIIDVMAWYRQAPGKQRELVAQIISGDHAYYADSVKGRFTISRDDTKTTLYLQMNSLKPDDTAVYYCSAEKFNPYRDSTYFWGQGTQVTVSS |  | 2.03 OD450 nm | 2.14 OD450 nm | 0.022 OD450 nm | no binding (tested: 1 µg/mL)
12 | anti-PD-1 single-domain antibody clone 2D9, histidine-tagged, from E. coli (VHH, Alpaca VHH expressed in E. coli Rosetta (DE3) from pET32a+, purified on a Ni column; not shown: C-terminal histidine tag) VHH: QVQLVESGGGLVQPGGSLRLSCAASGSVFIIDVMAWYRQAPGKQRELVAQIINGDAKYYADSVKGRFTISRDNTKTTLYLQMNSLKPDDTAVYYCSAEQFNPYRDSTYFWGQGTQVTVSS |  | 2.1 OD450 nm | 2.11 OD450 nm | 0.019 OD450 nm | no binding (tested: 1 µg/mL)
